This is an account of results in PMC2386976.

The series has as its system EIAV Rev (ERev), MBP-ERev fusion (Equine infectious anemia virus (EIAV)). As to the kind of experiment: filter binding. The conditions noted are these: Footprinting: 10 mM HEPES-KOH pH 7.5, 100 mM KCl, 1 mM MgCl2, 0.5 mM EDTA, complex formed 20 min on ice, probed 10 min at room temperature.

“ERRE_RBR12 (ERRE, EIAV RRE-1, contains RBR-1 and RBR-2)” gave a dissociation constant (Kd) of 19 nM.

Broadly, the Kd is the equilibrium constant for the complex coming apart. A lower Kd goes with a tighter complex.
